The text below walks through data of patent US20230115785, “ANALYTE DETECTION” (University of Leeds, published 2023).

Conditions in all cases: chain copies: 5 (pentamer, stated)
In series [1] the target is T1, C-reactive protein (CRP, pentamer) (Homo sapiens, UniProt P02741 P02741:19-224).
T1 sequence: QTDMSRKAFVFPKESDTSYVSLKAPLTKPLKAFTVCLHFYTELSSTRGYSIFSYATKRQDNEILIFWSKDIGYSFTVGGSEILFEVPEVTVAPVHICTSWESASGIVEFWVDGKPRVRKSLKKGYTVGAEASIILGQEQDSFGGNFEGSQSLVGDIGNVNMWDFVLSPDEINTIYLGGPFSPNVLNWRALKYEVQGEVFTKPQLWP
Put plainly: nanopipette translocation; carrier 9 nM, CRP 90 nM; no single peaks. The procedure:
For the translocation experiments the nanopipettes with the working electrode were filled with the translocation buffer (0.1 M KCl with 10 mM TrisAc, 10 mM MgAc, 2 mM CaCl₂) and 1 mM EDTA) containing the DNA origami and analyte where applicable at a final concentration of 500 pM. The Mg is required to maintain the stability of the DNA origami, and the Ca to match the buffer conditions used to select the DNA aptamers employed as binding moieties. The grounded counter electrode was immersed in a 0.1 M KCl solution completing the circuit. […] Measurements were recorded using the Axopatch 700b amplifier, and the data were acquired at a rate of 100 kHz and 20 kHz low pass filtered. […]
To investigate the specificity of our sensing system, and in particular of the carriers to the CRP target, a random DNA sequence was selected to act as a non-specific aptamer and the translocation ion current was measured for carrier concentration of 9 nM and CRP concentration of 90 nM, i.e. the highest concentration reported in FIG. 6. A single distribution of peak amplitudes and dwell times with averages of 69±5 pA and […], respectively, were found, consistent with the values measured with unoccupied carriers.

Series [2] concerns the target T1, C-reactive protein (CRP, pentamer). Put plainly: SPR; amine-anchored extended aptamer; 10 mM TrisAc, 10 mM MgAc, 2 mM CaCl2, 1 mM EDTA; faster kinetics than aptamer 2. The method, then:
(§1) Aptamer-protein binding studies were carried out via an ESPRIT SPR instrument from Metrohm Autolab B.V (Utrecht, The Netherlands). For this, the end-modified aptamers attached with an amine group were anchored onto the gold SPR surface functionalized with a self-assembled monolayer (SAM) of C11PEG6COOH via EDC (1-ethyl-3-(3-dimethylaminopropyl) carbodiimide) NHS (N-hydroxysuccinimide) coupling chemistry. The gold SPR surface from XanTec bioanalytics was cleaned by sonication twice in acetone for 10 minutes and then immersed in an ethanolic 1 mM SAM solution containing 5% acetic acid and allowed to stand at room temperature for 48 hours. Following the incubation, the surface was rinsed with 100% ethanol, quickly dried with nitrogen and was mounted on the SPR system. To attach the DNA aptamers to the gold surface, the COOH-terminated SAM surface was activated with 50 mM EDC and 200 mM NHS in 100 mM MES buffer at pH5.5 for around 15 min. The surface was washed with the MES buffer, followed by a 30-minute incubation with 5 μM of DNA aptamer in 10 mM sodium acetate buffer at pH5.5. Any remaining activated COOH sites were quenched by exposing the surface to 100 mM ethanolamine in water for around 10 min. […] The binding was measured as the change in resonance angle.
A general note: In SPR one partner is held on a chip, and binding of the other changes the refractive index at the surface.

The target is the same in series [3]. Put plainly: SPR; amine-anchored extended aptamer; slower kinetics than aptamer 1; similar carrier sensing results (p217). The procedure:
as §1

B1: Nonspecific random aptamer (ssDNA)
DNA: CTGAACAAGAAAAATAGCAGAACTTACGAGCCAGGGGAAACAGTAAGGCCTAATTAGGTAAAGGAGTAAGTGCTCGAACGCTTCAGA
modifications: 5'-NH2
Turning to B1, the binding result in series [1] was “no binding”.

B2: hCRP aptamer 1 (ssDNA)
DNA: AAGCCTTTATTTCAACGGCAGGAAGACAAACACGATGGGGGGGTATGATTTGATGTGGTTGTTGCATGATCGTGGTCTGTGGTGCTGT
modifications: 5'-NH2
For B2, the binding result in series [2] is “binds”.

B3: hCRP aptamer 2 (ssDNA)
DNA: CGAAGGGGATTCGAGGGGTGATTGCGTGCTCCATTTGGTGTTTTTTTTTTTTGCAAGGATAAAAATTT
modifications: 3'-NH2
B3: the binding result in series [3] is “binds”.
